Data taken from patent publication US20260258115A1 (MAPP BIOPHARMACEUTICAL, published 2026).

B1: ADI-41378 (antibody, V domains shown)
VH: EVQLVESGPGLVKPSGTLSLTCAVSGDSISSSNWWSWVRQPPGKGLEWIGEVSHSGNTDYNPSLKSRVTISVDKSKNQFSLKLSSVTAADTAVYYCARPSPCSGGSCYWFFDLWGRGTLVTVSS
VL: DIRLTQSPSSLSASVGDRVTITCRASQTINAYLNWYQQRPGKAPNLLIYAASSLQSGVPSRFSGSGSGTDFTLTISSLQPEDFATYYCQQSYKTAYTFGQGTKVEIK
notes: IgG1
B2: ADI-41389 (antibody, V domains shown)
VH: EVQLVESGGGVVQPGRSLRLSCAASGFTFSNYAIHWVRQAPGKGLEWVAAISYDGGNKFYADSVKGRFTISRDNSRNTLYLQMNSLRPEDTAVYYCARDRWELNYGIDVWGQGTTVTVSS
VL: SYELMQPPSVSVSPGQTARITCSGDALPKQYAYWYQQKPGQAPVLVIYKDSERPSGIPERFSGSTSGTTVTLTISGVQAEDEADYYCQSADSSSTFFYVFGTGTKLTVL
notes: IgG1; also called Ab 683
B3: ADI-41407 (antibody, V domains shown)
VH: EVQLVESGGGLVQPGGSLRLSCAASGFTFSSNAMSWVRQAPGKGLEWVSYISGGSATKSYADSVKGRFTISRDNSKNTLYLQMKSLRAEDTAVYYCVGGSAYYSGFDYWGQGTLVTVSS
VL: DIVMTQSPSSLSASVGDRVTISCRASQDIRNYLAWYQQKPGKVPNLLIYAASTLESGVPSRFSGSGYGTDFTLTISGLQPEDVATYYCQKYDSAPPFTFGPGTKVDIK
notes: IgG1
B4: ADI-41403 (antibody, V domains shown)
VH: EVQLVESGGGLVKPGGSLRLSCAASGFTFGTYTMNWVRQAPGKGLEWVSSISSSSSHIYYADSVKGRFTISRDNARKALYLQMNSLRPEDTAVYFCARFLGDYGGDGNTYYYYYGMDVWGQGTTVTVSS
VL: EIVMTQSPLSLPVTPGEPASISCRSSQSLLHSNGKNYLDWYLQKPGQSPQLLIHLGSNRASGVPDRFSGSGSGTDFTLQISRVEAEDVGVYYCMQALQTPTFGGGTKLEIK
notes: IgG1
B5: ADI-41425 (antibody, V domains shown)
VH: EVQLLESGPAVVKPTQTLTLTCTVSGLSLSSPRMSVSWIRQPPGKGLEWLARIDWDGDKYYGTSLKTRLSISKDTSKNQVVLTMTNMDPVDTGTYYCAQTSIYASNAYYLARLDPWGQGMLVTVSS
VL: EIVMTQSPSLLSASVGDRVTITCRASQNIATYLNWYQQKPGKAPRLLIYAASNLQSGVPSGFSGSGSGTVFTLTISSLQPEDFATYFCQQSYETSLTFGGGTKVEIK
notes: IgG1
B6: ADI-41391 (antibody, V domains shown)
VH: EVQLLESGPGLVKPSETLSLTCTVSGGSISGYYWSWIRQPPGKGLEWIGYIYHSGGSTNYNPSLKSRVTISVDTSKNQFSLKVSSVTAADTAVYYCARLARVVTTFDFWGQGALVTVSS
VL: QPVLTQPASVSGSPGQSITISCTGTSSDVGGYNYVSWYQQKPGTAPKLMIFDVSNRPSGVSNRFSGSKSDNTASLTISGLQAEDEADYYCSSYTSSTNLVFGGGTKLTVL
notes: IgG1
B7: ADI-41405 (antibody, V domains shown)
VH: EVQLLESGGGLVQPGGSLRLSCAASGFSFSIYSMNWVRQAPGKGLEWISYITSTGSPTYYADSVKGRFTISRDNAKNSLYLQMSSLRAEDTAVYYCVTYCSSSSCPAEFDYWGQGTLVTVSS
VL: EIVLTQSPATLSLSPGERATLSCRASQSVNSYLAWYQQKPGQAPRLLIYDASNRATGIPARFSGSGSGTDFTLTISSLEAEDFAVYYCQHRNNWPALTFGGGTKVEIK
notes: IgG1
B8: ADI-41385 (antibody, V domains shown)
VH: EVQLVESGGGVVQPGRSLRLSCAASGFTFSSYGMHWVRQAPGKGLEWVAVIWYDGNNEKYADSVKGRFTISRDNSKNTLYLQMNSLRAEDTAVYYCARPTQKYSSSWYWEDSIDYWGQGTLVTVSS
VL: QSVLTQPPSVFGAPGQRVTISCTGSSSNIGAGYPVHWYQQLPGTAPKLLIYGNSNRPSGVPDRFSGSKSGTSASLAITGLQAEDEADYYCQSYDSSLSGGVVFGGGTKLTVL
notes: IgG1; also called Ab 681
B9: ADI-41414 (antibody, V domains shown)
VH: EVQLLESGGGLAQPGRSLKVSCAASGVTVTSTYMGWVRQAPGKGLQWVSVIYSDGTTYYADSVKGRFTISRDHYKNTLYLQMNSLRAEDTALYYCARGNRRTDFGYWGQGTLVTVSS
VL: EIVMTQSPSTLSASVGDRVTITCRASQTISNWLAWYQQKPGKAPKLLIYQASTLESGVPSRFSGSGSGTEFTLTISSLQPDDFATYYCQQYNTYYTFGPGTKVEIK
notes: IgG1
B10: ADI-41427 (antibody, V domains shown)
VH: QVQLVESGPGLVKPSETLSLTCTVSGGSIGGYYWSWIRQPPGKGLEWIGYMYYSGSTNYNPSLKSRVTMSVDTSKNQFSLKLTSVTAADTAVYYCARVLRFLVGGMDVWGQGTTVTVSS
VL: QSVLIQPASVSGSPGQSITISCTGTSSDVGGYNYVSWYQQHPGKAPKLIIYEVSNRPSGVSNRFSGSKSGNTASLTISGLQAEDEADYYCNSYTTIATLVFGTGTKVTVL
notes: IgG1
B11: ADI-41418 (antibody, V domains shown)
VH: EVQLVESGGGLVKPGGSLRLSCAASGLSFTDAWMGWVRQAPGKGLEWVGHIKKKTDYGPTAYAAPVRGRFTVSRDDSKNTLYLQMTSLKTEDTAVYYCITERGYNFGYNDYFGVDVWGQGTLVTVSS
VL: QPGLTQPPSVSVSPGQTARITCSGDALPKKYAYWYQQKSGQAPVMIIYEDNKRPSGIPERFSGSTSGTMATLTISGAQMEDEADYYCFSTDSGDDQSGVFGGGTRLTVL
notes: IgG1
B12: ADI-41381 (antibody, V domains shown)
VH: QVQLQESGPGLVKPSQTLSLTCTVSGDSISGGEHYWSWIRQPPGKGLEWIGSIYYSGTTYYNPSLKSRLTVSVDTFKNQFSLMLSYVTAADTAVYYCARDASPAYHDYIWGSCRYFDKWGQGTLVTVSS
VL: EIVLTQSPGTLSLSPGERATLSCRASQSVSSNYLAWYQQKPGQAPRILIHGASSRATGIPDRFSGSGSGTDFTLTVSRLEPEDFAVYYCQQYGSTPYTFGQGTKVEIK
notes: IgG1; also called Ab 678
B13: ADI-41384 (antibody, V domains shown)
VH: QVQLVQSGAEVKKPGSSVRVSCKASGGTFSRYAISWVRQAPGQGLEWMGGVIPRFDKTNYAQKFQGRVMITADKSTSTAYMELSSLRSDDTAVYYCAGDRLDTKITHTWYGFGDFWGQGTTVTVSS
VL: EIVLTQSPGTLSLSPGERATLSCRASQSVTSNFLAWYQQRPGQAPRLLIYGASVRAIDIPDRFSGSGSGTDFTLTISRLEPEDFAVYYCQQYGDPFRTFGQGTKVEIK
notes: IgG1; also called Ab 680
B14: ADI-41431 (antibody, V domains shown)
VH: QVQLVQSGAEVKKPGASVRVSCTASGYRFFTYGITWVRQAPGQGLEWMGWISAYNGNTKFAQKFQGRLTMTTDAPTSTADMELRGLRSDDTAVYYCAREEGGYHGTGSNNYWGQGTLVTVSS
VL: QSVLTQPPSVSAAPGQKVTISCSGSGSNVGGNDVSWYQQFPGTAPKLLIYDNSKRPSGIPDRFSGSKSGTSATLVITGLQTGDEADYYCGTWDSSLSVGVFGTGTKLTVL
notes: IgG1; also called Ab 715
B15: ADI-41393 (antibody, V domains shown)
VH: QVQLVQSGAEVKKPGESLKISCKGSGYSFTSYWIGWVRQMPGKGLEWMGIIYPGDSDTRYSPSFQGQVTISADKSTSTAYLQWSSLKASDSAMYYCARSEFSSSFDFWGQGTLVTVSS
VL: NFMLTQPHSVSESPGKTVTISCTGSSGSIASYYVQWYQLRPGSAPTTVIYEDNQRLSGVPDRFSGSIDSSSNSASLTISGLKTEDEADYYCQSYRSGIPWVFGGGTKLTVL
notes: IgG1; also called Ab 687
B16: ADI-41404 (antibody, V domains shown)
VH: QVQLVQSGAEVKKPGSSVKVSCKASGGTFSSYGISWVRQAPGQGLEWMGGIIPIFGTVSYAQKFRGRLTITAHEPTSTAYMDLSSLRSEDTAVYYCARINGRGWELSSLNYYYGMDVWGQGTTVTVSS
VL: EIVLTQSPGTLSLSPGERGTLSCRASQSVASSYLAWYQQKPGQAPRLLIYGATSRATGIPDRFSGSGSGTDFTLTISRLEPEDFAVYYCQQYGSSLFTFGGGTKVDIK
notes: IgG1; also called Ab 696
B17: ADI-41415 (antibody, V domains shown)
VH: QVTLKESGPALVKPTQTLTLTCTFSGFSLSTSRTRVSWIRQPPGKALEWLARVDWDDDKFYNPVLKTRLSISKDPSKNQVVLTMTNVDPVDTATYYCVRMAHYGSGGYYVEYFQDWGQGTLVTVSS
VL: DIQLTQSPASLSASAGDRVTITCRASQNINRYLNWYQQQSGKAPKLLIYAASILQSGVPSRFSGSGSGTDFTLTITSLQPEDFAIYYCQQSYTTPKYTFGQGTKVEIK
notes: IgG1
B18: ADI-41429 (antibody, V domains shown)
VH: QVQLVQSGAEVKKPGSSVKVSCKASGGTFSSYAISWVRQAPGQGLEWMGGIIPIFGTVNYAQKFPGRVTITADESTSTAYMELSSLRSEDTAIYYCARDSPSYTGSLLFSQYYYGMDVWGQGTTVTVSS
VL: QPVLTQPASVSGSPGQSITISCTGTSSDVGGYDYVSWYQHHPGKAPKLMIYEVSNRPSGVSNRFSGSKSGNTASLTISGLQAEDEADYYCSSFTTSSPRVFGTGTKLTVL
notes: IgG1; also called Ab 714
B19: ADI-41392 (antibody, V domains shown)
VH: EVQLVESGGGVVQPGGSLRLSCAASGFEFRDYAMHWVRQAPGKGLEWVALISYDGSKIHYADSVQGRFSISRDNSKNSLYLQMNSLRSEDSAKYYCVQDHWLVPAFWGQGAQVTVSS
VL: QPVLTQPASVSGSPGQWITISCTGTSSDIGYYDYVSWYQQYPGKAPKLIIYEVSHRPSGVSNRFSGSKSGNTASLSISGLQAEDEADYYCSSYTTSNAGVFGTGTKLTVL
notes: IgG1

Biological target: RSV postfusion F (postF), F deltaFP (respiratory syncytial virus, UniProt P03420 26-513)
Assay: BLI, IgG on sensor, 100 nM antigen

Row | Binder | Kd
1 | B1 | 0.739 nM
2 | B2 | 0.513 nM
3 | B3 | 0.371 nM
4 | B4 | 0.841 nM
5 | B5 | 0.496 nM
6 | B6 | 0.479 nM
7 | B7 | 0.458 nM
8 | B8 | 0.601 nM
9 | B9 | 1.1 nM
10 | B10 | 0.917 nM
11 | B11 | 0.341 nM
12 | B12 | 1.34 nM
13 | B13 | 0.563 nM
14 | B14 | 0.345 nM
15 | B15 | 0.247 nM
16 | B16 | 13.6 nM
17 | B17 | 0.644 nM
18 | B18 | 1 nM
19 | B19 | 0.359 nM

Biological target: RSV prefusion F (preF), DS-Cav1 (respiratory syncytial virus, UniProt P03420 26-513)
Assay: BLI, IgG on sensor, 100 nM antigen

Row | Binder | Kd
20 | B1 | 2.98 nM
21 | B2 | 2.58 nM
22 | B3 | 2.08 nM
23 | B4 | 3.04 nM
24 | B5 | 1.14 nM
25 | B6 | 0.882 nM
26 | B7 | 2.72 nM
27 | B8 | 4.52 nM
28 | B9 | 2.7 nM
29 | B10 | 2.7 nM
30 | B11 | 1.58 nM
31 | B12 | 2.6 nM
32 | B13 | 3.45 nM
33 | B14 | 0.744 nM
34 | B15 | 1.67 nM
35 | B16 | 47.4 nM
36 | B17 | 1.08 nM
37 | B18 | 3.62 nM
38 | B19 | 0.329 nM

Biological target: RSV fusion glycoprotein (RSV F) on RSV-A2 virus (respiratory syncytial virus, UniProt P03420 26-574)
Assay: cell-based or functional assay

Row | Binder | Neutralization IC50 (RSV subtype A)
39 | B1 | > 25 µg/mL
40 | B2 | > 25 µg/mL
41 | B3 | > 25 µg/mL
42 | B4 | > 25 µg/mL
43 | B5 | > 25 µg/mL
44 | B6 | > 25 µg/mL
45 | B7 | > 25 µg/mL
46 | B8 | > 25 µg/mL
47 | B9 | > 25 µg/mL
48 | B10 | > 25 µg/mL
49 | B11 | > 25 µg/mL
50 | B12 | > 25 µg/mL
51 | B13 | > 25 µg/mL
52 | B14 | 2.38 µg/mL
53 | B15 | > 25 µg/mL
54 | B16 | > 25 µg/mL
55 | B17 | > 25 µg/mL
56 | B18 | > 25 µg/mL
57 | B19 | 0.18 µg/mL
